Assay results taken from paper PMC6458997, “Deciphering the Molecular Mechanism Underpinning Phage Arbitrium Communication Systems” (Molecular Cell, 2019).

B1: unnamed (parent)
chain 1: MELIRIAMKKDLENDNSLMNKWATVAGLKNPNPLYDFLNHDGKTFNEFSSIVNIVKSQYPDREYELMKDYCLNLDVKTKAARSALEYADANMFFEIEDVLIDSMISCSNMKSKEYGKVYKIHRELSNSVITEFEAVKRLGKLNIKTPEMNSFSRLLLLYHYLSTGNFSPMAQLIKQIDLSEISENMYIRNTYQTRVHVLMSNIKLNENSLEECREYSKKALESTNILRFQVFSYLTIGNSLLFSNYELAQENFLKGLSISVQNENYNMIFQQALCFLNNVWRKENKWINFESDSIMDLQEQAHCFINFNENSKAKEVLDKLDLLVHNDNELAMHYYLKGRLEQNKACFYSSIEYFKKSNDKFLIRLPLLELQKMGENQKLLELLLL
chain 2: not shown

Variants of: B1
Assay: thermal shift assay
Details: with partner chain of the complex shown; AimR + AimP; one of three independent experiments

Variant	screen value
chain 1 D360A	44.4 °C
chain 1 N202A	50.9 °C
